Laboratory results reported in article PMC5714209 (Nucleic Acids Research, 2017).

Biological target: the molecule itself
Assay: SEC

B1: full-length APOBEC3B (enzyme)
chain: not shown
stoichiometry N: 4
